Where a chain is given by its changes, count along the chain named.
B1: SRP2060-B01 (antibody, V domains shown)
VH: EVQLLESGGGLVQPGGSLRLSCALSGFSLSTFGMGVGWVRQATGKGLEWVSHIWWDDDKYYHPALKGRFTISKDNSKNTVHLQMNSLRAEDTAVYYCGRNHFPHYYGSSHWYFNVWGQGTTVTVSS
VL: DIQMTQSPSTLSASVGDRVTITCKASQDINSYLSWYQQKPGKAPKLLIYRANRLVDGVPSRFSGSGSGTEFTLTISSLQPDDFATYYCLQYDEFPYTFGGGTKVEIK
B2: SRP2060-A06 (antibody, V domains shown)
VH: B1 VH with L24F, T43P, S51G, H62Y, H81Y, N114D
VL: B1 VL
B3: SRP1848-H01 (antibody, V domains shown)
VH: EVQLVESGGGLVQPGGSLRLSCAASGFNIRTQSIHWVRQAPGKGLEWIGDIFPIDGITDYADSVKGRFTISADTSKNTAYLQMNSLRAEDTAVYYCARGSWSWPSGMDYYLDYWGQGTLVTVSS
VL: not shown
notes: trastuzumab light chain; captured through Fc in SPR (IgG format); HIS- and FLAG-tagged; also called Antibody 55

Legend:
[1] = target: FOLR1 on FOLR1-positive Igrov1 cells (UniProt P15328 25-234, limits assumed); assay: cell-based or functional assay
Sequence of FOLR1 on FOLR1-positive Igrov1 cells (P15328 25-234 limits assumed): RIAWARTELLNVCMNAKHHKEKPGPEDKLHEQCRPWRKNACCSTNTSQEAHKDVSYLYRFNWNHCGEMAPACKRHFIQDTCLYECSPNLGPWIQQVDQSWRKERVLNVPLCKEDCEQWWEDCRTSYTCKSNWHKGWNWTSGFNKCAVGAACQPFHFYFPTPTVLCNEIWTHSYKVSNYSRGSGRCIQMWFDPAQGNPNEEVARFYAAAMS

human FOLR1-HIS = target: T1, human FOLR1-HIS (human, UniProt P15328 25-234); assay: SPR (Biacore), antibody captured on anti-Fc, FOLR1-HIS as analyte, 25 C
T1 construct: Soluble analyte of the Biacore assay; also called human folate receptor alpha; hFOLR1; not shown: HIS tag
T1 sequence (P15328 25-234 limits assumed): as above
Procedure: Anti-Fc polyclonal antibodies were immobilized onto a CM5 chip (GE Life Sciences) using amine coupling chemistry (from Amine Coupling Kit, GE Life Sciences). The immobilization steps were carried out at a flow rate of 25 μL/min in 1×HBS-EP+buffer (GE Life Sciences; 10× Stock diluted before use). The sensor surfaces were activated for 7 min with a mixture of N-hydroxysuccinimide (NHS, 0.05 M) and 1-ethyl-3-(3-dimethylaminopropyl)-carbodiimide (EDC, 0.2 M). The anti-Fc polyclonal antibodies were injected over all 4 flow cells at a concentration of 25 μg/mL in 10 mM sodium acetate, pH 4.5, for 7 min. Ethanolamine (1 M, pH 8.5) was injected for 7 min to block any remaining activated groups.
Off-rate and kinetic binding experiments were performed at 25° C. using 1×HBS-EP+buffer. Test and control antibodies were injected over the anti-Fc surface at concentrations of 5-10 μg/mL for 12 seconds at a flow rate of 10 μL/min on flow cells 2, 3 and 4, followed by a buffer wash for 30 seconds at the same flow rate.
The data were fit with the Biacore T200 Evaluation software, using a 1:1 Langmuir binding model. KD (affinity, nM) was determined as a ratio of the kinetic rate constants calculated from the fits of the association and dissociation phases.

Row | Binder | Igrov 2° Antibody Cell Killing, Nb-SC239: EC50 [1] [nM] | Igrov 2° Antibody Cell Killing, Nb-SC239: span (%) [1] [%] | koff (human FOLR1-HIS) [s⁻¹] | kon (human FOLR1-HIS) [M⁻¹ s⁻¹]
1 | B1 | 0.045 | 76 | – | –
2 | B2 | 0.013 | 66 | – | –
3 | B3 | – | – | 0.00139 | 659000

Source: patent publication US20190233512A1 (SUTRO BIOPHARMA, published 2019)
